Source: paper PMC6797613, “Crystal Structure Of Photorespiratory Alanine:Glyoxylate Aminotransferase 1 (AGT1) From Arabidopsis thaliana” (Frontiers in Plant Science, 2019)

Molecular target: the molecule itself
Experiment: crystal structure; crystals grown by vapor diffusion from 4.1-4.2 M sodium formate, protein 11 mg/ml in 0.2 mM PLP, 10% glycerol, 100 mM Tris-HCl pH 8.5, room temperature; without or with 20 mM L-serine; data collected at 25°C; dimer by crystallographic dyad, tetramer by noncrystallographic two-fold axis

B1: alanine:glyoxylate aminotransferase 1 (AGT1) from Arabidopsis thaliana (enzyme, UniProt Q56YA5 1-401, looked up)
chain: MDYMYGPGRHHLFVPGPVNIPEPVIRAMNRNNEDYRSPAIPALTKTLLEDVKKIFKTTSGTPFLFPTTGTGAWESALTNTLSPGDRIVSFLIGQFSLLWIDQQKRLNFNVDVVESDWGQGANLQVLASKLSQDENHTIKAICIVHNETATGVTNDISAVRTLLDHYKHPALLLVDGVSSICALDFRMDEWGVDVALTGSQKALSLPTGLGIVCASPKALEATKTSKSLKVFFDWNDYLKFYKLGTYWPYTPSIQLLYGLRAALDLIFEEGLENIIARHARLGKATRLAVEAWGLKNCTQKEEWISNTVTAVMVPPHIDGSEIVRRAWQRYNLSLGLGLNKVAGKVFRIGHLGNVNELQLLGCLAGVEMILKDVGYPVVMGSGVAAASTYLQHHIPLIPSRI
notes: alanine:glyoxylate aminotransferase 1 (AGT1), Arabidopsis thaliana, AGI At2G13360, full length (residues 2/3-401 seen in the crystal); Untagged recombinant protein from a pET28a-derived plasmid (construct as in Liepman and Olsen, 2001); Catalytic dimer; an apparent tetramer (dimer of dimers) is seen in the crystal only; also called Arabidopsis AGT1; serine:glyoxylate aminotransferase; source: E. …
stoichiometry N: 2
